Laboratory results from article PMC4807222 (Structure (London, England : 1993), 2015).

B1: c-Myc_(1–88) (domain or fragment, human, UniProt P01106-1 1-88, looked up)
chain: MPLNVSFTNRNYDLDYDSVQPYFYCDEEENFYQQQQQSELQPPAPSEDIWKKFELLPTPPLSPSRRSGLCSPSYVAVTPFSLRGDNDG

Tests used:
full-length Pin1 (1–163) [1] = molecular target: T1, full-length Pin1 (1–163) (human, UniProt Q13526 1-163); assay: SPR
full-length Pin1 (1–163) [2] = molecular target: T1, full-length Pin1 (1–163); assay: ITC
c-Myc_(1–88) = molecular target: B1; assay: SPR

T1 sequence (Q13526 whole entry): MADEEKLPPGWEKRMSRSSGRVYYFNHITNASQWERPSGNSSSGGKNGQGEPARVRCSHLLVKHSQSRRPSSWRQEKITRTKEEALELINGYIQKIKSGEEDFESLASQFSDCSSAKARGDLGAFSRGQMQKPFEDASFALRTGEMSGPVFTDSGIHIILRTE

B1
Kd (full-length Pin1 (1–163) [1]): 4 µM

B2: pSer62-c-Myc_(1–88) (domain or fragment, human, UniProt P01106-1 1-88, looked up)
chain: MPLNVSFTNRNYDLDYDSVQPYFYCDEEENFYQQQQQSELQPPAPSEDIWKKFELLPTPPLSPSRRSGLCSPSYVAVTPFSLRGDNDG
modifications: phosphoserine at 62
Kd (full-length Pin1 (1–163) [2]): 10 to 100 µM

KLPPGWEKRMSRSSGRVYYFNHITNASQWERPSG (domain or fragment, human, UniProt Q13526 6-39, looked up) [Pin1WW (6–39)]
fold weaker affinity than intact Pin1 (c-Myc_(1–88)): > 10 fold

B3: Pin1_(PPIase) (50–163) (domain or fragment, human, UniProt Q13526 50-163, looked up)
chain: GEPARVRCSHLLVKHSQSRRPSSWRQEKITRTKEEALELINGYIQKIKSGEEDFESLASQFSDCSSAKARGDLGAFSRGQMQKPFEDASFALRTGEMSGPVFTDSGIHIILRTE
fold weaker affinity than intact Pin1 (c-Myc_(1–88)): > 10 fold
